Holding throughout (experiment): G' assay
The target in assay [1] is T1, GST-AIPC PDZ domain 1 (Homo sapiens (Human)), O15018.
T1 chain: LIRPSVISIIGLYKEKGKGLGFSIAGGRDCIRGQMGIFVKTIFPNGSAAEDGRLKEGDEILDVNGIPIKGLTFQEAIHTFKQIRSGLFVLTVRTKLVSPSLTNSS

Assay [2] addresses T2, GST-MUPP1 PDZ domain 11 (Homo sapiens (Human)), O75970.
T2 chain: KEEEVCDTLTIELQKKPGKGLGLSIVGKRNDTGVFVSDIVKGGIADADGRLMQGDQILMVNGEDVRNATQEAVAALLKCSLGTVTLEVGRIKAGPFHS

The target of assay [3] is T3, GST-KIAA0973 PDZ domain 1 (Homo sapiens (Human)), Q9Y2H9.
T3 chain: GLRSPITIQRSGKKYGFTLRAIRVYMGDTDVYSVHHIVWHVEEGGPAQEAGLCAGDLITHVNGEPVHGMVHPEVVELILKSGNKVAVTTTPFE

Assay [4] concerns the target T4, GST-KIAA1634 PDZ domain 2 (Homo sapiens (Human)), Q5TCQ9.
T4 chain: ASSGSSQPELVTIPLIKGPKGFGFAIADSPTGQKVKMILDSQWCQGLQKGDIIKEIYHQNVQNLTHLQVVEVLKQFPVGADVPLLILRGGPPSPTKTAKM

The target of assay [5] is T5, GST-NeDLG PDZ domain 2 (Rattus norvegicus (Rat)), Q62936.
T5 chain: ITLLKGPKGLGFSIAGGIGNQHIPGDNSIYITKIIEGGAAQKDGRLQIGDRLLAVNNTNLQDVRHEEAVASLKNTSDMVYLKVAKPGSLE

Assay [6] concerns the target T6, GST-APXL-1 PDZ domain 1 (Homo sapiens (Human)), Q13796.
T6 chain: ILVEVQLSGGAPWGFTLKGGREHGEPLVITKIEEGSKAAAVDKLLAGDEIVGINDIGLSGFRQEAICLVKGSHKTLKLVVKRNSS

In assay [7] the target is T7, GST-SYNTENIN PDZ domain 1 (Homo sapiens (Human)), O00560.
T7 chain: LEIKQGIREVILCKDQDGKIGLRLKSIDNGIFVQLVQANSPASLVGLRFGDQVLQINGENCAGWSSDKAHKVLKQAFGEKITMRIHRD

For assay [8], the target named is GST-Atrophin-1 Interacting Protein PDZ domain 5 (Rattus norvegicus (Rat)), O88382.
Chain of GST-Atrophin-1 Interacting Protein PDZ domain 5 (Rattus norvegicus (Rat)), O88382 (O88382 1128-1225): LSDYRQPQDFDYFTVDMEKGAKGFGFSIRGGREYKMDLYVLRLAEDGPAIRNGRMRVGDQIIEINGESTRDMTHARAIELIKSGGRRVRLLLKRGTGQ
The target in assay [9] is T8, GST-X-11 beta PDZ domain 2 (Rattus norvegicus (Rat)), O35431.
T8 chain: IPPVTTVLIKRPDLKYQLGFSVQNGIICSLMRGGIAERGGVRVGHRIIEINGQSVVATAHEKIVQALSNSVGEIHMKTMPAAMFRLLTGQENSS

The target of assay [10] is T9, GST-ZO-2 PDZ domain 1 (Homo sapiens (Human)), Q9UDY2.
T9 chain: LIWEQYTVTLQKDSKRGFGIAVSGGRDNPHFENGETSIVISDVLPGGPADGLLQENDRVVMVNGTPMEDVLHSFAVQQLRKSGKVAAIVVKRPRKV

Assay [11] addresses T10, GST-MUPP1 PDZ domain 13 (Homo sapiens (Human)), O75970.
T10 chain: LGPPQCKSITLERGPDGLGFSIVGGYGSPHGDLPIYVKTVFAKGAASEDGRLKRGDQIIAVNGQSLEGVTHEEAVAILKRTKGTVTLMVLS

In assay [12] the target is T11, GST-NeDLG PDZ domains 1, 2, Q92796.
T11 chain: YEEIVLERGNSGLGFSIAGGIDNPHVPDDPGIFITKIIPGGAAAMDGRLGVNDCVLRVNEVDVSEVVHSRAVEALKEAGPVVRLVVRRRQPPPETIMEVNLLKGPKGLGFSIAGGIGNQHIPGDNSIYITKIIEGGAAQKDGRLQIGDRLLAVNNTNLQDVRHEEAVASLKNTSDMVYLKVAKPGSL

The target of assay [13] is GST-DLG1 PDZ domain 1 (Homo sapiens), Q12959.
Assay [14] concerns the target GST-PSD95 PDZ domains 1, 2, 3 (Homo sapiens), P78352.
For assay [15], the target named is T12, GST-KIAA0147 PDZ domain 2 (Homo sapiens (Human)), Q14160.
T12 chain: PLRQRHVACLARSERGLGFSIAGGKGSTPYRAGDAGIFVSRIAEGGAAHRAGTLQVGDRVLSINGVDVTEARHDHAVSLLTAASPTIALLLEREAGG

Assay [16] deals with T13, GST-KIAA0147 PDZ domain 3 (Homo sapiens (Human)), Q14160.
T13 chain: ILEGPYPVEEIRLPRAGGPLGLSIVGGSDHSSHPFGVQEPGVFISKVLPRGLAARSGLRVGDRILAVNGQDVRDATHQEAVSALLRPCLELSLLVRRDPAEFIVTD

Assay [17] concerns the target GST-PSD95 PDZ domain 1 (Homo sapiens).
The target in assay [18] is T14, GST-NOS1 PDZ domain 1 (Homo sapiens (Human)), P29475.
T14 chain: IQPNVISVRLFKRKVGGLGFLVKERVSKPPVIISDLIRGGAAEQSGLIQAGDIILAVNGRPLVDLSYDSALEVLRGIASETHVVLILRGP

Assay [19] concerns the target T15, GST-INADL PDZ domain 8 (Homo sapiens (Human)), Q8NI35.
T15 chain: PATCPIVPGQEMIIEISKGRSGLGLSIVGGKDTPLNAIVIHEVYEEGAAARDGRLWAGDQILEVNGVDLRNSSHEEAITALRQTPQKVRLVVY

Assay [20] has as its target T16, GST-INADL PDZ domain 5 (Homo sapiens (Human)), Q8NI35.
T16 chain: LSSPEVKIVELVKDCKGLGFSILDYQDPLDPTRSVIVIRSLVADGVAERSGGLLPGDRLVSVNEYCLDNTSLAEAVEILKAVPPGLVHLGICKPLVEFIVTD

Read-outs that look alike come from different tables or passages of the source.
Further: key of the grades not given here.

Chain of GST-PSD95 PDZ domains 1, 2, 3 (Homo sapiens), P78352 (P78352 62-395): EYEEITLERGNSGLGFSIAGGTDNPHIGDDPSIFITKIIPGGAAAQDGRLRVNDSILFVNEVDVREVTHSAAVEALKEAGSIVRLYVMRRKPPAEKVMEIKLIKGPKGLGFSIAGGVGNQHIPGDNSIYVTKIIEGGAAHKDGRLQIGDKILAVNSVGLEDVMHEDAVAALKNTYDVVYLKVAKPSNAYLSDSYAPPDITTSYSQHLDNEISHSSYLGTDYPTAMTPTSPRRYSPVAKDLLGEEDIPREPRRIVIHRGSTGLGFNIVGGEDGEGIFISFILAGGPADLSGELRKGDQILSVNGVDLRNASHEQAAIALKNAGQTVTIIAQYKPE

B1: ephrin B2 (peptide)
peptide: ILNSIQVMRAQMNQIQSVEV
modifications: not checked
As for B1, the Classification is 2 A450 class in assay [1]; 2 A450 class in [2]; 2 A450 class in assay [3]; 1 A450 class in assay [4]; 2 A450 class in [5]; 1 A450 class in [6]. For the same molecule, the Classification in assay [7] turned out to be 1 A450 class; in assay [8], 2 A450 class; in assay [9], 1 A450 class; in [10], 1 A450 class.

B2: alpha-2A Adrenergic receptor (peptide)
peptide: HDFRRAFKKILARGDRKRIV
modifications: not checked
Take B2: the Classification in assay [1] was 2 A450 class; in assay [6], 1 A450 class; in [11], 1 A450 class; in [8], 1 A450 class; in assay [9], 1 A450 class.

B3: TAX (peptide)
peptide: QISPGGLEPPSEKHFRETEV
modifications: not checked
As to B3, the Classification in [1] is 1 A450 class; in assay [12], 5 A450 class; in assay [13] it was 5 A450 class; in [4], 2 A450 class; in assay [5] it was 5 A450 class; in assay [14] it was 5 A450 class. Also, the Classification in [11] was 5 A450 class; in assay [8] it was 3 A450 class; in [15] it was 5 A450 class; in [16] it was 1 A450 class; in [17], 5 A450 class.

B4: AdenoE4 typ9 (peptide)
peptide: VGTLLLERVIFPSVKIATLV
modifications: not checked
Consider B4, for which the Classification in [18] amounted to 5 A450 class; in [2], 5 A450 class; in assay [12], 5 A450 class; in [13], 4 A450 class; in assay [4] it was 5 A450 class; in assay [5], 5 A450 class. For the same molecule, the Classification in [14] turned out to be 5 A450 class; in assay [19], 2 A450 class; in [10] it was 3 A450 class; in assay [17], 4 A450 class.

B5: a-actinin 2 (peptide)
peptide: VPGALDYAAFSSALYGESDL
modifications: not checked
Take B5: the Classification in assay [1] came out at 2 A450 class; in assay [3] it was 2 A450 class; in [6], 5 A450 class; in [8] it was 5 A450 class; in assay [16] it was 3 A450 class.

B6: CSPG4 (chondroitin sulfae proteoglycan 4, melanoma-associated) (peptide)
peptide: ELLQFCRTPNPALKNGQYWV
modifications: not checked
Turning to B6, the Classification in assay [18] turned out to be 2 A450 class; in assay [1] it was 5 A450 class; in [2] it was 5 A450 class; in [6] it was 3 A450 class; in assay [7] it was 2 A450 class; in assay [8], 2 A450 class. The Classification in assay [20] came out at 5 A450 class; in [19] it was 3 A450 class; in assay [9] it was 2 A450 class; in assay [10], 5 A450 class.

B7: LPAP (peptide)
peptide: AWDDSARAAGGQGLHVTAL
modifications: not checked
For B7, the values for the Classification in [18] (remark: other sources report otherwise), in assay [6] and in assay [8] were 1 A450 class, 1 A450 class and 2 A450 class, respectively.

B8: catenin - delta 2 (peptide)
peptide: PYSELNYETSHYPASPDSWV
modifications: not checked
Regarding B8, the Classification is 2 A450 class in assay [1]; 1 A450 class in assay [13]; 2 A450 class in [14]; 5 A450 class in assay [8]; 1 A450 class in assay [20]; 2 A450 class in [19]. The Classification worked out at 3 A450 class in assay [15] and 1 A450 class in [17].

B9: KIA 1481 (peptide)
peptide: PIPAGGCTFSGIFPTLTSPL
modifications: not checked
On to B9, for which the Classification in assay [3] was determined as 2 A450 class; in [4], 1 A450 class; in assay [6] it was 5 A450 class; in [20], 1 A450 class.

B10: MINT-1 (peptide)
peptide: KTMPAAMYRLLTAQEQPVYI
modifications: not checked
As to B10, the Classification in assay [18] was found to be 4 A450 class; in assay [1] it was 1 A450 class; in assay [2], 5 A450 class; in [7] it was 3 A450 class; in [19] it was 1 A450 class.

B11: NMDA Glutamate Receptor 2C (cysteine-free) (peptide)
peptide: TQGFPGPATWRRISSLESEV
modifications: not checked
On to B11, for which the Classification in [18] came to 1 A450 class; in assay [1] it was 3 A450 class; in assay [12] it was 5 A450 class; in [13], 5 A450 class; in [3] it was 1 A450 class; in assay [4] it was 3 A450 class. In addition, the Classification in assay [5] is 5 A450 class; in [6] it was 1 A450 class; in assay [14] it was 5 A450 class; in assay [11], 5 A450 class; in assay [8], 5 A450 class; in assay [20] it was 1 A450 class. Besides, the Classification in assay [19] was 1 A450 class; in assay [15] it was 1 A450 class; in [16], 1 A450 class; in assay [17] it was 5 A450 class.

For the origin of these results see US20050282743A1, “Molecular interactions in cells” (Arbor Vita Corporation, priority 2001, published 2005).
